Consider one molecule from PMC6629707, “The Kindlin2-p53-SerpinB2 signaling axis is required for cellular senescence in breast cancer” (Cell Death & Disease, 2019).

In the assay the target is T1, purified p53 protein (Abcam) (UniProt P04637 1-393).
T1 construct: p53 protein bought from Abcam; also called immobilized p53; source: bought: Abcam
Put plainly: ELISA; solid phase direct binding assay; p53 immobilised on 96-well plates at 5 μg/well, 20 h, 4 °C; 3% BSA; GST-tagged Kindlin-2 variants or GST 0–7 µM in TBS with 1 mM CaCl2, 1 mM MgCl2, 2 h at 37 °C; detected with anti-GST-HRP; GST signal subtracted; one-site binding fit. The following applies: both partners purified. Background: In an ELISA, binding on a coated surface is turned into a signal by an enzyme label.

T1 sequence (P04637 whole entry): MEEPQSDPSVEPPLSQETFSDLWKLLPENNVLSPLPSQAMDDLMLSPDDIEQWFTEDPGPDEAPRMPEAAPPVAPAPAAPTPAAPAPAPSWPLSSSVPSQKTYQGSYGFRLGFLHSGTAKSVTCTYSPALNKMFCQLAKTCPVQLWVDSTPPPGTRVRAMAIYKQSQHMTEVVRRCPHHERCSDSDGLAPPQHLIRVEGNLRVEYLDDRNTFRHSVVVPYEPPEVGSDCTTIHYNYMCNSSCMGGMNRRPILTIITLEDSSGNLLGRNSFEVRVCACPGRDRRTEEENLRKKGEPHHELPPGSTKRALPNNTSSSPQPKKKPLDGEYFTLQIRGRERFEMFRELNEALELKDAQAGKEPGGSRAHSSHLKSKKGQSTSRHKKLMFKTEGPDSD

B1: GST-tagged full-length wild-type Kindlin-2 (natural protein, UniProt Q96AC1 1-680, looked up)
chain: MALDGIRMPDGCYADGTWELSVHVTDLNRDVTLRVTGEVHIGGVMLKLVEKLDVKKDWSDHALWWEKKRTWLLKTHWTLDKYGIQADAKLQFTPQHKLLRLQLPNMKYVKVKVNFSDRVFKAVSDICKTFNIRHPEELSLLKKPRDPTKKKKKKLDDQSEDEALELEGPLITPGSGSIYSSPGLYSKTMTPTYDAHDGSPLSPTSAWFGDSALSEGNPGILAVSQPITSPEILAKMFKPQALLDKAKINQGWLDSSRSLMEQDVKENEALLLRFKYYSFFDLNPKYDAIRINQLYEQAKWAILLEEIECTEEEMMMFAALQYHINKLSIMTSENHLNNSDKEVDEVDAALSDLEITLEGGKTSTILGDITSIPELADYIKVFKPKKLTLKGYKQYWCTFKDTSISCYKSKEESSGTPAHQMNLRGCEVTPDVNISGQKFNIKLLIPVAEGMNEIWLRCDNEKQYAHWMAACRLASKGKTMADSSYNLEVQNILSFLKMQHLNPDPQLIPEQITTDITPECLVSPRYLKKYKNKQITARILEAHQNVAQMSLIEAKMRFIQAWQSLPEFGITHFIARFQGGKKEELIGIAYNRLIRMDASTGDAIKTWRFSNMKQWNVNWEIKMVTVEFADEVRLSFICTEVDCKVVHEFIGGYIFLSTRAKDQNESLDEEMFYKLTSGWV
notes: Kindlin-2, full length, wild type; expressed as a GST fusion protein; also called Kindlin-2-GST; GST-tagged WT Kindlin-2; source: Escherichia coli, purified on Glutathione-Sepharose
Usually EC50 stands for the concentration that produces a half-maximal response. Low values mean higher potency in that assay, high ones lower potency in that assay. As for B1, the EC50 was found to be 480 nM.
